The record followed here is patent publication US20200405832A1 (MINERVA BIOTECHNOLOGIES, published 2020).

Assay [1] deals with T1, PSMGFR peptide (Primary Sequence of the MUC1 Growth Factor Receptor).
T1 construct: 45-residue peptide from the extracellular domain of cleaved MUC1 (MUC1*); also called MUC1* peptide; MUC1* extra cellular domain peptide
T1 peptide: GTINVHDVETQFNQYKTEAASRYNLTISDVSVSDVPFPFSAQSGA
Kind of assay: binding to peptide; assay not described.

The target in assay [2] is T1, PSMGFR peptide (Primary Sequence of the …). Description: binding assay on peptide.
Another assay concerns the target T2, NME7-AB (UniProt Q9Y5B8 92-376).
T2 sequence (looked up): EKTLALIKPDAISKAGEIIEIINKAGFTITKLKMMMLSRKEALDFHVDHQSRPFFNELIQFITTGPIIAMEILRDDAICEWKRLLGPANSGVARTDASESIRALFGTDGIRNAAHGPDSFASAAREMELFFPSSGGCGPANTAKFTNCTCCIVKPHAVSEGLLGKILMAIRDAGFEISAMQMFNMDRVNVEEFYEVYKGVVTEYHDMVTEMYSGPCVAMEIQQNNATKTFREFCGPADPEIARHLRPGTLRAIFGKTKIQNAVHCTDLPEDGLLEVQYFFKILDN
Kind of assay: binding assay on peptide.

A further assay deals with T3, dimeric NME1 (human, UniProt P15531 1-152, limits assumed).
T3 construct: The construct used is not described; also called NM23-H1 dimers; dimeric NM23-H1
Kind of assay: binding assay on peptide.

T3 sequence (P15531 whole entry): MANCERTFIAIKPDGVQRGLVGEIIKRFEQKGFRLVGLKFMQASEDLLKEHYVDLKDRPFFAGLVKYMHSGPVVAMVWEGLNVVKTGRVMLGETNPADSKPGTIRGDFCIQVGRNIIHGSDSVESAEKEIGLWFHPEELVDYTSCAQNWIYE

B1: mouse monoclonal antibody MN-C3 (antibody, V domains shown)
VH: QVQLQQSGPELVRPGVSVKISCKGSGYRFTDYAMNWVKQSHAKSLEWIGVISTFSGNTNFNQKFKGKATMTVDKSSSTAYMELARLTSEDSAMYYCARSDYYGPYFDYWGQGTTLTVSS
VL: DVLMTQTPLSLPVSLGDQASISCRSSQTIVHSNGNTYLEWYLQKPGQSPKLLIYKVSNRFSGVPDRFSGSGSGTDFTLKINRVEAEDLGVYYCFQGSHVPFTFGSGTKLEIK
notes: also called Min-C3
As to B1, the binding result in assay [1] was “binds”.

B2: mouse monoclonal antibody MN-E6 (antibody, V domains shown)
VH: EVKVVESGGDLVKPGGSLKLSCVVSGFTFSRYGMSWVRQTPGKRLEWVATISGGGTYIYYPDSVKGRFTISRDNAKNTLYLQMSSLKSEDTAMYHCTRDNYGRNYDYGMDYWGQGTSVTVSS
VL: QIVLTQSPAIMSASPGEEVTLTCSATSSVSYIHWFQQRPGTSPKLWIYSTSNLASGVPVRFSGSGYGTSYSLTISRMEAEDAATYYCQQRSSSPFTFGSGTKLEIK
notes: also called Min-E6
Turning to B2, the binding result in assay [2] is reported as “binds”.

For the molecule GTINVHDVETQFNQYKTEAASRYNLTISDVSVSDV (also called C-10 PSMGFR) [PSMGFR peptide lacking the 10 C-terminal amino acids], the binding result with NME7-AB and with dimeric NME1 was “no binding” in each case.

B3: mouse monoclonal antibody MN-C2 (antibody, V domains shown)
VH: EVQLEESGGGLVKPGGSLKLSCAASGFTFSGYAMSWVRQTPEKRLEWVATISSGGTYIYYPDSVKGRFTISRDNAKNTLYLQMSSLRSEDTAMYYCARLGGDNYYEYFDVWGAGTTVTVSS
VL: DIVITQSTASLGVSLGQRATISCRASKSVSTSGYSYMHWYQQRPGQPPKLLIYLASNLESGVPARFSGSGSGTDFTLNIHPVEEEDAATYYCQHSRELPFTFGGGTKLEIKR
notes: The printed entries run a few residues into the constant region; also called Min-C2
On to B3, for which, in assay [2], the binding result is given as “binds”.
